B1: Tesmin, residues 368 to 403; numbered along this chain, Q9Y4I5 (parent)
chain: KGCNCRRSGCLKNYCECYEAQIMCSSICKCIGCKNY
B2: POU domain, class 3, transcription factor 4, residues 280 to 335; numbered along this chain, P49335 (parent)
chain: KKRTSIEVSVKGVLETHFLKCPKPAAQEISSLADSLQLEKEVVRVWFCNRRQKEKR

Variants of: B1
Experiment: abundance fitness (aPCA) (normalised: wild type 0, dead -1); higher = more abundant; growth selection in yeast, the domain comes from the species named
Conditions: Homo sapiens

Abundance fitness of substitutions, site by site:
C17: R -0.444
L11: M 0.038
E19: K -0.1, C -0.132, F -0.31, V -0.201
C30: T -0.468
M23: R -0.075, V -0.1, K -0.057
K34: V 0.152
Y14: V -0.082, W -0.01
N35: E 0.11, F -0.614, R -0.019, S -0.023, Y -0.64
Q21: N -0.124, C -0.235, E 0.155
K12: Y -0.831, P -0.077
N13: V -0.619, Q -0.061
S26: N -0.079
C15: R -0.378
R7: I -0.336, Y 0.035
G32: S -0.087
I22: C -0.55
C5: I -0.936, S -0.342, E -0.176, P -0.296
S8: N -0.384
R6: K 0.146
C24: T -0.294
G2: E 0.017
S25: H -0.269
N4: I -0.31, G -0.103, H -0.199
Y18: G 0.034, H -0.016, E 0.058, W -0.047, P -0.066
C10: T -0.245
E16: L -0.441, C -0.677, M -0.218, Y -0.577
K29: D 0.171, V 0.011, M -0.016, I -0.334, S 0.051
C28: E -0.157, V -0.42
C33: T -0.14, V -0.055
Y36: S -0.016, R 0.305
I27: W -0.703, E 0.207

Variants of: B2
Experiment: as above
Conditions: Homo sapiens

Abundance fitness of substitutions, site by site:
K1: R -0.312, W 0.033, M -0.03, G -0.243, E -0.049, D -0.185, S -0.132
K2: M -0.201, D -0.342, S -0.161, V -0.124, N -0.058, A -0.433, Q -0.637, P -0.559, H -0.258, L -0.093, Y -0.159, R -0.225, C -0.8, T -0.277, E -0.526
V8: G 0.49, P 0.736, S 0.546, A 0.354, Y 0.231, Q 0.405, L 0.293, I 0.04, D 0.006, E 0.623, K 0.842, M 0.527, R 0.362, H 0.07, W -0.045, T 0.307, C -0.326, N 1.06
V13: S -0.038, F -0.315, M 0.18, W -0.745, C -0.454, H -0.407, E -0.182, D -0.518, R -0.215, I -0.235, A -0.082, G -0.662, L -0.02, Q 0.205, Y -0.354, T -0.502
F18: A -0.891, I -0.851, M -0.893, P -0.992, N -0.859, E -0.851, G -0.741, H -0.251, D -0.814, L -1.03, R -0.812, K -0.461, Q -1.16, C -0.745, S -0.719
G12: D 0.288, S 0.298, K -0.009, V -0.034, R -0.219, L 0.004, Q 0.103, A -0.177
V10: R -0.731, I 0.08, K -0.12, E 0.262, M 0.058, A 0.393, H -0.133, Y -0.503, G -0.751, N -0.279, S -0.587, L -0.472, Q -0.193, C -0.486, T -0.21
S5: I -0.107, N 0.216, L -0.045, M 0.289, T 0.217, C 0.2, P -0.158, F -0.155, E 0.565, K 0.226, A 0.11, G 0.27, V 0.275, W -0.162, Q 0.268, H -0.187, D 0.405
T16: C -0.283, V -0.504, K 0.572, N -0.223, A 0.197, P -0.839, Y -0.306, G 0.041, R 0.059, S 0.217, D 0.157, Q 0.044, L -0.304, W -0.347, E 0.368, I -0.428, M -0.214
T4: L -0.021, H -0.925, M 0.108, I 0.067, K 0.011, P -0.178, F -0.26, S 0.213, C -0.249, W -0.486, G -0.189, D 0.34, E 0.034, Y -0.248, A -0.145, R -0.419
K11: M 0.17, S -0.498, D 0.119, H -0.207, Q 0.14, R -0.076, A 0.778, G -0.645, V -0.117
H17: V -0.017, I -0.542, E -0.172, T -0.464, P -0.957, W -0.159, A 0.085, G -0.662, L -0.401, R -0.845, Y 0.386, M -0.019, N -0.458, C -0.497, D -1, S -0.262
E15: T -0.82, Q -0.789, A -0.539, W -1.04, Y -1.23, V -0.756, K -0.728, S -0.845, G -0.881, D -0.998, P -0.659, L -0.645, N -0.885, C -0.947, I -0.368, H -0.873, R -0.985, F -0.681
R3: N 0.033, F -0.226, T 0.205, V -0.15, M 0.011, L 0.306, S 0.261, K 0.03, W -0.706, Q -0.354, Y 0.069, A -0.162, P 0.122, C 0.174, G 0.077, H -0.277, I 0.104
E7: A -0.082, G 0.381, M -0.191, S 0.528, D 0.327, Y -0.285, P 0.607, R -0.093, K 0.271, V -0.362, T 0.526, I -0.357, L -0.163, H 0.105, W -0.014, Q 0.013, F -0.513
S9: T 0.008, E 0.443, C -0.017, G 0.172, A -0.056, D 0.539, K 0.237, M -0.392, L -0.24, N 0.52, F -0.348, H 0.277, P -0.335, V -0.173
I6: Q -0.123, F -0.397, V -0.215, N -0.249, E -0.303, S -0.152, P -0.169, H -0.128, G -0.197, T -0.201, D -0.249, C -0.626, A -0.437, Y -0.613, R -0.292, W -0.244, L 0.018
L14: T -0.537, M -0.623, I -0.607, V -0.788, Q -0.953, R -0.792, Y -1.08, F -0.887, A -0.955, N -0.564, D -0.825, H -0.983, S -0.693, C -0.563, G -0.891, K -0.655

— the Human Domainome abundance scans (Beltran et al. 2025)
